Assay results published in US20160355583A1 (Novartis, published 2016).
Where two headings read alike, the source gives them in different places.

T1: human BMP10 (Bone Morphogenetic Protein 10 Preproprotein [Homo sapiens], NP_055297) (human, UniProt O95393 317-424)
T1 construct: Bought recombinant protein; also called huBMP10; rhBMP10 (R&D Cat#2926-BP-025)
T1 sequence: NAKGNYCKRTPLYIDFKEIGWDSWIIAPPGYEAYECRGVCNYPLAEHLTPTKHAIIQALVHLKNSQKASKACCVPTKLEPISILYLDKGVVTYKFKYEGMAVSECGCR

T2: human BMP9 (BMP9/Growth Differentiation Factor 2 [Homo sapiens], NP_057288) (human, UniProt Q9UK05 320-429, limits assumed)
T2 construct: cell assays use 'recombinant human BMP9 complex'; also called huBMP9; hBMP9
T2 sequence: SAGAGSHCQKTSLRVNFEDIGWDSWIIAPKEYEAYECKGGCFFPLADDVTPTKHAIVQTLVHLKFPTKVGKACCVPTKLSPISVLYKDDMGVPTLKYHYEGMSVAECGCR

T3: mouse BMP9 (mouse, UniProt Q9WV56 319-428, limits assumed)
T3 construct: also called murine BMP9; mouse BMP9 (iPROT101715)
T3 sequence (looked up): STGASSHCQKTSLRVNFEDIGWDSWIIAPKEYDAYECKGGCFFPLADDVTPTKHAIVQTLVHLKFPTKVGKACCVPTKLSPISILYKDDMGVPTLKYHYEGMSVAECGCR

T4: cyno BMP9 (cyno, UniProt G7PEU8 320-429)
T4 sequence: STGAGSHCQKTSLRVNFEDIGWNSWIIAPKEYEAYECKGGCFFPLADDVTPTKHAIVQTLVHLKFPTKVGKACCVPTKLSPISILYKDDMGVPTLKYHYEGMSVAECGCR

T5: rat BMP9 (rat, UniProt M0RB87 320-430, The mature growth factor is a disulfide-linked homodimer. One copy of the polypeptide is given.)
T5 construct: also called rat BMP9 (R&D Systems 5566-BP); rat BMP9 condition medium
T5 sequence: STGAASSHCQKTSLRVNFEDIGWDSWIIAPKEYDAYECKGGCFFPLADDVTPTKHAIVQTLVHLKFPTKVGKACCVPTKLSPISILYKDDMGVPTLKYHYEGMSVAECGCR

T6: human BMP7 (human, UniProt P18075 293-431)
T6 construct: Bought recombinant protein; also called huBMP7; rhBMP7 (R&D Cat#354-BP-010)
T6 sequence (looked up): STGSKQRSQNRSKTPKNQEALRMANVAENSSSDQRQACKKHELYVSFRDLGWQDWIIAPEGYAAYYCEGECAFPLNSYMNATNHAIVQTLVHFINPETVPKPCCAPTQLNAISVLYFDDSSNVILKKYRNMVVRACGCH


Key:
[1] = molecular target: T1, human BMP10 (Bone Morphogenetic Protein …); test: Table 7 (caption: MSD-SET; Example 6 describes Biacore SPR on immobilised rhBMP10, Fab 31.25-1000 nM)
[2] = molecular target: T2, human BMP9 (BMP9/Growth Differentiation …); test: blocking ELISA; competitor Type I BMP receptor (AlkI)
Description: (§1) Blocking ELISA was used to identify positive clones that can inhibit the interactions between BMP9 and its receptors. Four different recombinant BMP9 receptors can be used: human Alk1-Fc (R&D system, 370-AL-100); human BMPRII-Fc (R&D system, 811-BR-100); human ActRIIA-Fc (R&D system, 340-R2-100); human ActRIIB-Fc (R&D system).
(§2) The blocking activity of antibody sample to specific ligand/receptor combination was measured by ELISA. In brief, 50 ul of receptor at a concentration of 1 ug/ml in coating buffer (PBS) was added into 96 well ELISA plates at 4° C. overnight, followed by washing with PBST one time. ELISA plates were blocked with 200 ul blocking buffer (PBST containing 1% BSA) in each well and then incubated at room temperature (RT) for 1 hour, followed by washing with PBST for 3 times. Diluted antibody sample was mixed with biotinylated human BMP9 (bio-hBMP9 of 1 ug/ml) and incubated at RT for 45 minutes. The mixture of antibody and bio-hBMP9 was added to the plates of 50 ul/well and then incubated at RT for 30 minutes, followed by washing with PBST for 3 times. 50 ul Poly-HRP Streptavidin (Thermofisher, 21140) was added to each well of the plates and incubated at RT for 30 minutes, followed by washing with PBST for 5 times. Finally, 50 ul of TMB reagent (Invitrogen 002023) and 50 ul of 1N HCl (Invitrogen SS01100) were added to each well to stop the reaction. Absorbance of each well was read at 450 nm to get readout OD₄₅₀.

[3] = molecular target: T2, human BMP9 (BMP9/Growth Differentiation …); test: cell-based or functional assay
human BMP2 [4] = molecular target: T7, human BMP2 (human, UniProt P12643 283-396); test: table caption: MSD-SET; Example 6 describes Biacore SPR for BMP2, BMP7, BMP10
T7 construct: Bought recombinant protein; also called huBMP2; rhBMP2 (R&D Cat#355-BM-010)
T7 sequence (P12643 283-396 limits assumed): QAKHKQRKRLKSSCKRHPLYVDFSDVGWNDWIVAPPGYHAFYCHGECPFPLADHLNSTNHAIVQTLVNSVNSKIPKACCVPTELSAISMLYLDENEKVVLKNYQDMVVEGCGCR

[5] = molecular target: T2, human BMP9 (BMP9/Growth Differentiation …); test: MSD-SET solution equilibrium titration
Description: (§3) The amount of free Fab binding sites was determined by transferring the mixtures on antigen-coated plates and a brief incubation. The free Fab was consequently bound to the plate and detected with a detection antibody after a washing step for removing Fab-antigen complexes. The resulting signal was plotted versus the antigen concentration; and the KD was accurately determined by non-linear curve fitting.
(§4) A 22 serial 2ⁿ dilution of the antigens (human BMP9 (GD-43-KS00); cyno BMP9, rat BMP9 (R&D Systems 5566-BP) or mouse BMP9 (iPROT101715)) was prepared in incubation buffer (PBS (Teknova Cat#P0195) containing 0.5% BSA (Sigma Cat#A7906-500G) and 0.02% Tween-20 (VWR Cat#437082Q)). A constant concentration of the Fab was added. A volume of 60 ul of each antigen:Fab mix was distributed in duplicates to a 384-well polypropylene microtiter plate (PP MTP, Greiner Cat#781280). Incubation buffer served as negative control and a sample containing no antigen served as positive control (Bₘₐₓ). The plate was sealed and incubated overnight (O/N) at room temperature (RT).
(§5) A 384-well standard MSD array plate (Meso Scale Discovery Cat#L21XA) was coated with 30 ul/well human BMP9 diluted in PBS as capture agent and incubated O/N at 4° C. After washing for 3 times with 70 ul/well washing buffer (TBS (Teknova Cat#T1680) with 0.05% Tween-20), the plate was blocked with 50 ul/well blocking buffer (PBS with 5% BSA) for 1 hour at RT. After washing, a volume of 30 ul/well of the antigen:Fab mix was transferred from the PP MTP to the coated MSD plate and incubated for 20 min at RT. After an additional wash step, 30 ul of detection antibody (Goat anti-human Fab specific (Jackson Immuno Research Cat#109-005-097) conjugated with MSD SULFO-TAG NHS Ester (Meso Scale Discovery Cat#R91AN-1)) diluted 1:1000 in incubation buffer was added to each well and incubated for 30 min at RT. The MSD plate was washed and 35 ul/well of read buffer (MSD Read Buffer T 4×, Meso Scale Discovery Cat#R92TC-1) was added and then incubated for 5 min at RT. ECL signals were measured with the MSD SECTOR Imager 6000. The data was evaluated with XLfit (IDBS) software following a 1:1 fit model for Fab (according to Piehler et al., 1997).

mouse BMP9 = molecular target: T3, mouse BMP9; test: MSD-SET solution equilibrium titration
Description: as §3, §4, §5

cyno BMP9 = molecular target: T4, cyno BMP9; test: MSD-SET solution equilibrium titration
Description: as §3, §4, §5

[6] = molecular target: T2, human BMP9 (BMP9/Growth Differentiation …); test: Biacore SPR, bivalent model, kd1
[7] = molecular target: T2, human BMP9 (BMP9/Growth Differentiation …); test: Biacore SPR, bivalent model, KD from ka1 and kd1
[8] = molecular target: T2, human BMP9 (BMP9/Growth Differentiation …); test: Biacore SPR, bivalent model, ka1
[9] = molecular target: T2, human BMP9 (BMP9/Growth Differentiation …); test: cell-based or functional assay; remark: listed apart in the source
[10] = molecular target: T1, human BMP10 (Bone Morphogenetic Protein …); test: Table 5 (caption: MSD-SET; Example 6 describes Biacore SPR on immobilised rhBMP10, Fab 31.25-1000 nM)
rat BMP9 = molecular target: T5, rat BMP9; test: MSD-SET solution equilibrium titration
Description: as §3, §4, §5

human BMP2 [11] = molecular target: T7, human BMP2; test: table caption: MSD-SET; Example 6 describes Biacore SPR for BMP2, BMP7, BMP10; remark: listed apart in the source
human BMP7 [12] = molecular target: T6, human BMP7; test: as above
human BMP2 [13] = molecular target: T7, human BMP2; test: Table 5 (caption: MSD-SET; Example 6 describes Biacore SPR on immobilised rhBMP2, Fab 31.25-1000 nM)
human BMP7 [14] = molecular target: T6, human BMP7; test: Table 5 (caption: MSD-SET; Example 6 describes Biacore SPR on immobilised rhBMP7, Fab 31.25-1000 nM)
[15] = molecular target: T2, human BMP9 (BMP9/Growth Differentiation …); test: blocking ELISA; competitor Type II BMP receptor (ActRIIB, BMPRII)
Description: as §1, §2

Binder	IC50 [2] [nM]	Kd [5] [nM]	Kd (mouse BMP9) [nM]	Kd (cyno BMP9) [nM]	koff [6] [s⁻¹]	Kd [7] [nM]	kon [8] [M⁻¹ s⁻¹]	RGA IC50 [pM] (HEK293T BRE-Luc reporter gene assay) [9]	binding result [10]	Kd (rat BMP9) [nM]	also measured
Antibody BMP9-6: MOR022965 (antibody, human IgG1, kappa, V domains shown, Fully human, phage display) VH: QVQLVQSGAEVKKPGSSVKVSCKASGGTFSSYAISWVRQAPGQGLEWMGHIIPHWGHARYAQKFQGRVTITADESTSTAYMELSSLRSEDTAVYYCARSASSLPHFHWFDYWGQGTLVTVSS VL: DIQMTQSPSSLSASVGDRVTITCRASQDINNYLNWYQQKPGKAPKLLIYAASRLQSGVPSRFSGSGSGTDFTLTISSLQPEDFATYYCQQRDTTPWTFGQGTKVEIKR	≤ 1	0.032	0.069	0.023	–	–	–	–	–	–	binding result [1]: no binding; RGA IC50 [pM] (HEK293T BRE-Luc reporter gene assay) [3]: 180 pM; Kd (human BMP2 [4]): 3110 nM
Mouse Antibody 2B11G2 (antibody, V domains shown, Mouse hybridoma monoclonal antibody; also called B211G2) VH: QAYLQQSGAELVRPGASVKMSCKASGYTFPSYNMHWVKQTPRQGLEWIGVIYPGNGVTSYSQKFKDKATLTVDKSSSTAYMQLSSLTSEDSAVYFCAKDDYFYGGSYAMDYWGQGTSVTVSS VL: DIVLTQSPATLSVTPGDSVSLSCRASQSISNNLHWYQQISHESPRLLIKYASQSISGIPSRFSGSGSGTDFTLSINSMETEDFGMFFCQQSHSWPYTFGGGTKLEIK	–	–	–	–	0.000166	66.2	2510	–	–	–	–
Mouse Antibody 4E10D7 (antibody, V domains shown, Mouse hybridoma monoclonal antibody; also called parental 4E10D7 antibody) VH: QVQLQQPGAEAVKPGASVKLSCKASGYTFTRYWMHWVKQRPGQGLEWIGEINPSNGGTNYNEKFKSKATLTVDKSSSTAYMQLSSLTSEDFAVYYCTMGSNYGGFVYWGQGTLVTVSA VL: not shown	–	–	–	–	0.000617	2.2	281000	–	–	–	–
Antibody BMP9-4: AM4405 (antibody, human IgG1, kappa, V domains shown, also called 2B11G2-AM4405) VH: QVQLVQSGAEVKKPGASVKVSCKASGYTFRSYNMHWVRQAPGQGLEWMGLIYPGNAVTSYSQKFKDRVTMTVDKSTSTAYMELSSLRSEDTAVYYCAKDDYFRGGSYAMDYWGQGTTVTVSS VL: EIVLTQSPDFQSVTPKEKVTITCRASQSIRNNLHWYQQKPDQSPKLLIKYASQSIRGVPSRFSGSGSGTDFTLTINSLEAEDAATYYCQQSHSWPYTFGGGTKVEIKR	≤ 1	0.018	0.008	0.048	–	–	–	90	no binding	0.013	Kd (human BMP2 [11]): 177 nM; Kd (human BMP7 [12]): 9170 nM
Antibody BMP9-1: AM0100 (antibody, human IgG1, kappa, V domains shown, also called 4E10D7-AM0100) VH: QVQLVQSGAEVKKPGASVKVSCKASGYTFTRYWMHWVRQAPGQGLEWMGEINPSQGGTNYNEKFKSRVTMTVDKSISTAYMELSRLRSDDTAVYYCAIGSNYGGLVYWGQGTLVTVSS VL: EIVLTQSPATLSLSPGERATLSCRASESLDNYGISFMNWFQQKPGQAPRFLIYAASNQGSGIPARFSGSGSGTDFTLTISSLQPEDTAVYFCQQSKEVPRTFGGGTKVEIKR	–	0.182	0.073	0.128	–	–	–	83	no binding	0.094	binding result (human BMP2 [13]): no binding; binding result (human BMP7 [14]): no binding; IC50 [15]: ≤ 1 nM
